Laboratory results published in publication PMC4433220.

Columns and labels:
[1] = target: T1, Dps (Escherichia coli, UniProt P0ABT2 1-167); test: EMSA; 2-fold Dps excess: triplex significantly reduced; EMSA: 50 mM Tris-HCl pH 7.5, 0.1 mM EDTA, 50 mM NaCl, 37°C 30 min; footprinting: 50 mM Tris-HCl pH 8.0, 0.1 mM EDTA, 0.1 mM DTT, 10 mM MgCl2, 50 mM NaCl, 5 mg/m
[2] = target: T1, Dps; test: AFM; bound protein slightly shifted from center; EMSA: 50 mM Tris-HCl pH 7.5, 0.1 mM EDTA, 50 mM NaCl, 37°C 30 min; footprinting: 50 mM Tris-HCl pH 8.0, 0.1 mM EDTA, 0.1 mM DTT, 10 mM MgCl2, 50 mM NaCl, 5 mg/m

Row | Binder | binding result [1] | binding result [2]
1 | Y5_Y6_Y7 (structured_DNA) DNA 1: CTTTTCCTCTACACCGTCTTTATATATCGAATTAAGAAGTCGCAATGAGTATTACTTTGTAAAT DNA 2: CAAGGGTAAACGAACCTTGCGCTTTCTTAAATATTCGATATATAAAGACGGTGTAGAGGAAAAG DNA 3: ATTTACAAAGTAATACTCATTGCGACTTCTTAATTTAAGAAAGCGCAAGGTTCGTTTACCCTTG | binds | 
2 | Y5_Y6_Y8 (structured_DNA) DNA 1: CTTTTCCTCTACACCGTCTTTATATATCGAATTAAGAAGTCGCAATGAGTATTACTTTGTAAAT DNA 2: CAAGGGTAAACGAACCTTGCGCTTTCTTAAATATTCGATATATAAAGACGGTGTAGAGGAAAAG DNA 3: ATTTACAAAGTAATACTCATTGCGACTTCTTAATTTAAGAAAGCGCAAGGAACGTTTACCCTTG |  | binds
